# According to the DeepSol protein solubility set:
# Test: soluble on expression in E. coli; label from the status in PepcDB or PDB records
row,Sequence,soluble on expression in E. coli
1,MSLTLLKGRRKVDTIKVGILGYGLSGSVFHGPLLDVLDEYQISKIMTSRTEEVKRDFPDAEVVHELEEITNDPAIELVIVTTPSGLHYEHTMACIQAGKHVVMEKPMTATAEEGETLKRAADEKGVLLSVYHNRRWDNDFLTIKKLISEGSLEDINTYQVSYNRYRPEVQARWREKEGTATGTLYDLGSHIIDQTLHLFGMPKAVTANVMAQRENAETVDYFHLTLDYGKLQAILYGGSIVPANGPRYQIHGKDSSFIKYGIDGQEDALRAGRKPEDDSWGADVPEFYGKLTTIRGSDKKTETIPSVNGSYLTYYRKIAESIREGAALPVTAEEGINVIRIIEAAMESSKEKRTIMLEHEGHHHHHH,soluble
2,GPHSLRYFVTAVSRPGLGEPRFISVGYVDNTEFVRFDSDAENPRYEPRARWMEQEGPEYWERETQKAKGNEQSFRVDLRTLLGYYNQSKGGSHTIQVISGCEVGSDGRLLRGYQQYAYDGCDYIALNEDLKTWTAADMAALITKHKWEQAGEAERLRAYLEGTCVEWLRRYLKNGNATLLRTDSPKAHVTHHSRPEDKVTLRCWALGFYPADITLTWQLNGEELIQDMELVETRPAGDGTFQKWASVVVPLGKEQYYTCHVYHQGLPEPLTLRWEPPPST,soluble
3,MKRLAVILITLALVSSMCITNSNEKRENMKNAKVLMVIAPKDFRDEELFEPMAVFESNGLKVDVVSTTKGECVGMLGNKITVEKTIYDVNPDDYVAIVIVGGIGSKEYLWNNTKLIELVKEFYNKNKVVSAICLSPVVLARAGILKGKKATVYPAPEAIEELKKAGAIYEDRGVVVDGNVITAKSPDYARLFGLEVLKAIEKNNE,soluble
4,MKVKIAFTTTDRIHVNAHFGWAREIDIYEISDHGYEFLETLKFEGDLKEDGSEDKITPKLEALNGCTIVYVVAIGGSAAARLIKGGVTPVKAKSEEEKIEEVLTKLVKTLKGNPPPWLRKALQPKTLNFADEVENEATV,not soluble
5,MSLAEIGVDAAFIDLLVETFYGRVLEHQTLGPVFDARLAGRWPEHMARMKQFWTAIAFKNGSYGGKPVQAHLGVQGMSAELFPQWLALFSVTLDDIAPSRKAHDWFMETAERIARSLTLSLFYNPAMDDPAVKREGHHHHHH,not soluble
6,MSPSKLSNDETPPDLDFRFTGIKQRLIKSENVKQVTASWKRLLVEINKEFTEIAKIGPSYVPKCDFIDIKDNKLPQQVSELFKQRGCLMIENVIDVDRIDIWFNELVEFCKTHPETAGYTFPNPTSWYNVFWSKPQTEARFHPNIKAIFKAMSKEFYVEDKENCLIDLDTQLVYGDRIRIREPGKAAALPLHLDSSSIERWEDIMYSEVYKSIFEGDWENWDAFKLDERTYSKENLYKDEDDTGGKSTICSSFRTLQGWLALSNNKSGEGTLRVLPSLKLSMAYIMLRPFFWKDPESGNIDDYEIDMITPKFPGTVPGTGQLFLDKFYPHLHQGIISIPDVKKGSFVFWHCDLPHEVDREHNGNGHSSVLYYGQTPLSITNIQTLLDTRDAFLKNISPADYRSQLNEEEKQKEFQGANIDDLKNDIDSKRSMGLEEFEIPENMSGGQAKIRSIANQALKTGGFNVDKYIHHAAK,soluble
7,MGSDKIHHHHHHMKLIINADDFGFTRAINYGIIDAHNLGVLTSTTLMVTMPAFEHAVDLSKKTPTLGIGLHLNLTLGKPLTNGATLVNEDGELIKPKFTTPEYPYNEEEVYQEFKAQYHRFTEFMKKKPSHLDSHLFSTDIYPVVTSAAKRLAEEIGIPLRNHDTKGFEHVEFMWEKPLEIPYGEYDNLDYIYDNAASILCYDYVEIMTHPGYLDTFILENSTFSTPRANELESLISPRMRQFLNENNVELISYHDIPKK,not soluble
8,MGSDKIHHHHHHSCGGKKNSGQLSDTAVQIVKPEFPQIVPFETGIETEQEILLSEIADSIRYIPLETNNKCLIRGLKGSNIIRTKEYFFLPWIDKLFQYTKDGKFIRTLGRKGGGPGEFNWIMQIDVDEKKGLVYMLTTTGKINIYSMETGKFIRAMKVPNIEVSEFAMLRVQDTIAATFMRNNNGKRKERIYLSNLKGDTLKIFNRWDLFDLNSKYRWMISSDIDRYMFHYKSHTCYKEYYNDTLFTITQETLEPRYIFQMGKYSLPIECRFEYLNGDGKRFQEVAAPYIQYNTIETDSYIFMPYSNWAGEKEQERQMAIYDKKAKNCFKVSTGHIKNDLTPGLPLRPITALDSHTLLYVWEAPELLEKAEKTPSILQIEPLKGLNEDDNPVMMIVYLKQP,not soluble
9,DVQLVESGGGLVQPGGSRKLSCAASGFTFSSFGMHWVRQAPEKGLEWVAYISSGSSTLHYADTVKGRFTISRDNPKNTLFLQMTSLRSEDTGMYYCARWGNYPYYAMDYWGQGTSVTVSSAKTTPPSVYPLAPGSAAQTNSMVTLGCLVKGYFPEPVTVTWNSGSLSSGVHTFPAVLQSDLYTLSSSVTVPSSPRPSETVTCNVAHPASSTKVDKKIVPRDC,soluble
10,MGSDKIHHHHHHMMRLIRDLAQRPNPPDVGFQFVTDEEIGGRHGTGRLRDEGWHCDFMLCLEPTDLGIMFEHKGGMWAQLRIPGRAAHGSRPWEGDNPVYRLMQGIQAISERYPPPTGPHDWRTSVTPTEIRMGAGSRNQVPAEALVTFDIRWTADTTPETIQADLAAAFPDAEFISVMASAGLRTDPEHQEVGRIADIVERHIGHTPRFYREHFATDARYYSHIGIPAICLGPVGAGLHSAEEWVEIASLTSLYQIILDYIDTM,not soluble
11,MPNDIENGTVIPPRRGVVWKIEEKELQGFAIPFPGADLSVMVRSQYYDATVRKSRPVHLSSYFQLDTRFKTYRLILWGAITRAFALASFTRRILLKYPDQCSFRMFKKSGPSAQQIAEASFTYWFFGYGYKETIPLDQQHERKVDRKVVATCKGPDLAYMAASGCVLSAALALVKDKNNLPKEGGVYTPAAAFGDSKIYDYLATFGINFHLESEYDL,not soluble
12,MNLDLTAQKVRLSWKDILWGYGNKYLGWADVAAYARKMTLSDHDERVFKLSLINKSNILELKPVLEDLASEMRDYSPKNWLYVLLSDVFHRKEEFEDPLGEVEKIYADFDYPEEIESFVRYMPPKDGYIPSAHTYEENIARLYSHWEHYLNNGGGQG,not soluble
13,MAHHHHHHMESPQVAELNEDIVELNKLLAQAVRENVKEKIKKCIENTTVEIAKLKLEESQTPNKITEKNTPLNDSNISYNSVQSFAWNQEGNKVTVFLTVKDIHTIDKEKISAEFNERNFEVKMHQVNKKNYRFCVKKLHEKIVPGKCSFKVKKDALHVYLIKQDQKYWDNLHFKESPMSKIRAPKMDEQAEPSTMLMNMMKQLYQEGDSDMKRTIAKAWCEANEKKSDFSVPNF,soluble
14,MIPPLNRYVPALSKNELVKTVTNRDIQFTSFNGKDYPLCFLDEKTPLLFQWFERNPARFGKNDIPIINTEKNPYLNNIIKAATIEKERLIGIFVDGDFFPGQKDAFSKLEYDYENIKVIYRNDIDFSMYDKKLSEIYMENISKQESMPEEKRDCHLLQLLKKELSDIQEGNDSLIKSYLLDKGHGWFDFYRNMAMLKAGQLFLEADKVGCYDLSTNSGCIYLDADMIITEKLGGIYIPDGIAVHVERIDGRASMENGIIAVDRNNHPALLAGLEIMHTKFDADPYSDGVCNGIRKHFNYSLNEDYNSFCDFIEFKHDNIIMNTSQFTQSSWARHVQ,not soluble
15,MQFHAVYQNNDTKANLDFALNISTINFATLQELQNSFDLQGSDLTAGLFYKYSVNKLTSGTNDLTTIAKTALGENIIQKQVSLTQSIIKPRLEAAKTQYKQDIIAPFAKERQAALAQHL,not soluble
16,MATTTPERVMQETMDYHALNAMLNLYDKAGHIQFDKDQQAIDAFFATHVRPHSVTFASQHERLGTLVREGYYDDAVLARYDRAFVLRLFEHAHASGFRFQTFLGAWKFYTSYTLKTFDGKRYLEHFEDRVTMVALTLAQGDETLATQLTDEMLSGRFQPATPTFLNCGKQQRGELVSCFLLRIEDNMESIGRAVNSALQLSKRGGGVAFLLSNLREAGAPIKRIENQSSGVIPVMKMLEDAFSYANQLGARQGAGAVYLHAHHPDILRFLDTKRENADEKIRIKTLSLGVVIPDITFRLAKENAQMALFSPYDIQRRYGKPFGDIAISERYDELIADPHVRKTYINARDFFQTLAEIQFESGYPYIMFEDTVNRANPIAGRINMSNLCSEILQVNSASRYDDNLDYTHIGHDISCNLGSLNIAHVMDSPDIGRTVETAIRGLTAVSDMSHIRSVPSIAAGNAASHAIGLGQMNLHGYLAREGIAYGSPEALDFTNLYFYTITWHAVHTSMRLARERGKTFAGFAQSRYASGDYFTQYLQDDWQPKTAKVRALFARSGITLPTREMWLKLRDDVMRYGIYNQNLQAVPPTGSISYINHATSSIHPIVAKIEIRKEGKTGRVYYPAPFMTNENLDMYQDAYDIGPEKIIDTYAEATRHVDQGLSLTLFFPDTATTRDINKAQIYAWRKGIKSLYYIRLRQLALEGTEIEGCVSCAL,soluble
17,GSPGISGGGGGILGLMAEQEPTAEQLAQIAAENEEDEHSVNYKPPAQKSIQEIQELDKDDESLRKYKEALLGRVAVSADPNVPNVVVTRLTLVCSTAPGPLELDLTGDLESFKKQSFVLKEGVEYRIKISFRVNREIVSGMKYIQHTYRKGVKIDKTDYMVGSYGPRAEEYEFLTPMEEAPKGMLARGSYNIKSRFTDDDRTDHLSWEWNLTIKKEWKD,soluble
18,MIMALSSFGKILTVLDLFSVHRPIINVDIICEELALSKPTGYRYLKELVSSEILQRISGTSGDYTLGPKIAVMDYISRTTDPIVQMSSPFMRDIAERTELCCLLTHLNRDYCIDVHHEVFRNADLLSYGRGCPRPVYMGSSPKVIMAHLPKRQIQDYYQRFSRQLAEVDFAHDEESFLIRMKKIKKDGYYISHGELNPDVTGLSVPIKFSHTKESPMALTLVASKNRFEFINIDKLIEILQANVIHIEQKSLALIQIEKSLH,not soluble
19,MASMTGGQQMGRGSEEPNPNDGYDYMQHGFDWPGLQEGGTTKYPACSGSNQSPIDINTNQLMEPSSRSGTSAVSLNGLNVDGAQADGITLTNAKVDLEQGMKVTFDQPAANLPTIEIGGTTKSFVPIQFHFHHFLSEHTINGIHYPLELHIVMQEQDPADVATAQLAVIGIMYKYSENGDAFLNSLQTQIEGKIGDGTASYGDTGVSIDNINVKTQLLPSSLKYAGYDGSLTTPGCDERVKWHVFTTPREVTREQMKLFVDVTMGAHAGADVVNNRMIQDLGDREVYKYNY,soluble
20,MYHLKKQRIMGAVKRNTLSVLFIIKKAKLLKNGEAPVCMRITVNKRVAEVMIKRSIPVDLWNQKKECSKGKDRVAIELNHYINTVRAKVLQIHRELEIDNKPITADIIKDCFYGRDKVQRSLQEVYKEHNEKCRALIGKEYTESTVIKFDTSINRLKEYIRSCYHRDDIMLAELDGQFIRDFDFWLKTEKHCQNNSALKHLKNLKKVVRIALANDWIKKDPFYGIHFKQEEVNVEFLSREELDILMNKEFAIKRLEQVRDIFVFCCFTALAFVDVQQLSREHLIKDNSGALWIRKARQKTNQMCNIPVLSIPQRILRKYEDNAECIKKGVLLPVISNQRMNAYLKEIADLCGITKRLTTHVARHTAATIVFLANDVSMENVSKILGHSNIRMTQHYAKVLDSSIMRDMVNVEKNFK,not soluble
21,MRRKNLFWDDVYKGTPPWDLDHPQPAFEALIKNGEIKPGRALDIGCGRGENAIILAMNGCDVIGIDLAENAISDAKAKATERHVKVKFVVEDALQMNRLFEEGEFDVVIDSGLFHVMMDEQRRVFAQQVHRVLREGGKYFMLCFSDKEPGEYELPRRLSKAEIESTFSPVFDITYIKEAVFDSLLSPSRRKAYLLSATRSLEHHHHHH,not soluble
